Experimental data as given in US20160009772A1, “CELL PENETRATING PEPTIDES WHICH BIND IRF5” (priority 2012, published 2016).

B1: FITC-Aha-…-NH2 (SEQ ID NO: 16) (peptide)
peptide: XIRLQISNPYLKFIPLKRAIWLIK
modifications: N-terminal FITC-Aha (fluorescein isothiocyanate on amino hexanoic acid), C-terminal amide (NH2)
B2: FITC-Aha-…-NH2 (SEQ ID NO: 17) (peptide)
peptide: XMIILIISFPKHKDWKVILVK
modifications: N-terminal FITC-Aha (fluorescein isothiocyanate on amino hexanoic acid), C-terminal amide (NH2)

The binders below were run against Wild type IRF5 (222-467) (human) (UniProt Q13568) (assay: TR-FRET IRF5 dimerization inhibition, WT (222-467), peptide titrated).

Going from B1 to Ac-YLKFIPLKRAIWLIK-NH2 [Ac-…-NH2 (SEQ ID NO: 23), control CPP designed not to bind IRF5], the IC50 rises from 46500 nM to greater than 75000 nM. The first is the more potent here.

First: Ac-KDLMVQWFKDGGPSSGAPPPS-NH2 [Ac-…-NH2 (SEQ ID NO: 8)]
Second: Ac-PFPPLPIGEEAPKDDMVRFFKDLHQYLNVV-NH2 [Ac-…-NH2 (SEQ ID NO: 10)]
The IC50 of the first is 2.3-fold higher: 790 nM for the first, 350 nM for the second. The second is the more potent here.

First: B2
Second: Ac-MIILIISFPKHKDWKVILVK-NH2 [Ac-…-NH2 (SEQ ID NO: 14)]
The IC50 of the first is 3.5-fold lower: 5300 nM for the first, 18600 nM for the second. The first is the more potent here.

With Ac-IRLQISNPDLKDLMVQWFKDGGPSSGAPPPS-NH2 [Ac-…-NH2 (SEQ ID NO: 9)] the IC50 was 1400 nM.

These binders were tested against IRF5(222-467, S430D), S430D phosphomimetic construct of IRF5 (222-467) (human), Q13568 (assay: not given).
IRF5(222-467, S430D), S430D phosphomimetic construct of IRF5 (222-467) (human), Q13568, sequence (Q13568 232-477 S440D limits assumed): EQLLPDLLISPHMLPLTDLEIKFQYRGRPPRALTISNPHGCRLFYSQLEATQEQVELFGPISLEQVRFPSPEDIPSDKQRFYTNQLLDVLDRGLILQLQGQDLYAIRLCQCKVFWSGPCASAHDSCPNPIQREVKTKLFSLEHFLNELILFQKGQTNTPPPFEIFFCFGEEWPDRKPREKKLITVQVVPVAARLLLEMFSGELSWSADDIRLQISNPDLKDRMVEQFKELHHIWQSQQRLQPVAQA

Ac-KDLMVQWFKDGGPSSGAPPPS-NH2 [Ac-…-NH2 (SEQ ID NO: 8)] gave an IC50 of 1680 nM.
